In article PMC4615246 (Nucleus, 2015):
Where two headings read alike, the source gives them in different places. Values belong to the binder of their own block, whether it stands above or below them.

Columns and labels:
Experiment in all cases: LacI/LacO array recruitment in cells
LacI-CFP-Nup98 = target: T1, LacI-CFP-Nup98 (human, UniProt P52948 1-880)
T1 sequence: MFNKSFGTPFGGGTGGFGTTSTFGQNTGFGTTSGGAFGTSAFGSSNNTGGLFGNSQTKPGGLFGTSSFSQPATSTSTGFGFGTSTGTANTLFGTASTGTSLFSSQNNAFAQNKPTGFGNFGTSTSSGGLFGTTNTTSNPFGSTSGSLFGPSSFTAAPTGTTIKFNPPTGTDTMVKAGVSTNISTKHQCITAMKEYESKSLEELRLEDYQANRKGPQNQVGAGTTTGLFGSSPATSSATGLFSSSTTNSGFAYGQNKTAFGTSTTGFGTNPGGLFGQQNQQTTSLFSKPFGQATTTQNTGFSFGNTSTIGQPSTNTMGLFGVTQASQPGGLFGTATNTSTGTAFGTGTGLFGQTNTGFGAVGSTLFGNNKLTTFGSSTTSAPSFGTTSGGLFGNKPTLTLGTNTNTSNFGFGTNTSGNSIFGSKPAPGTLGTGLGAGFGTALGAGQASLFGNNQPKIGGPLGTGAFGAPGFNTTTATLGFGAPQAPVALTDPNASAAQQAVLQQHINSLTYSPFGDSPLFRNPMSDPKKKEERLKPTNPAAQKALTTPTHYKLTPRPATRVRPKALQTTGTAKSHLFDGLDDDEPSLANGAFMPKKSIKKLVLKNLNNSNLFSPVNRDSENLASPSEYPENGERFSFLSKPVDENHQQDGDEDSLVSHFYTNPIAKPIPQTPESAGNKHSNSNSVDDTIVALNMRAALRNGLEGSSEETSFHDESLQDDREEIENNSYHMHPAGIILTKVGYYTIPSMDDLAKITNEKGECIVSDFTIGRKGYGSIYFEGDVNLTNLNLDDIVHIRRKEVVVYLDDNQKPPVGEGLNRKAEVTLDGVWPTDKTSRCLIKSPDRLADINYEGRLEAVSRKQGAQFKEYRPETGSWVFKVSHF

LacI-CFP-Nup214 = LacI-CFP-Nup214 (human, UniProt P35658 1-2090)
Sequence of LacI-CFP-Nup214 (P35658 whole entry): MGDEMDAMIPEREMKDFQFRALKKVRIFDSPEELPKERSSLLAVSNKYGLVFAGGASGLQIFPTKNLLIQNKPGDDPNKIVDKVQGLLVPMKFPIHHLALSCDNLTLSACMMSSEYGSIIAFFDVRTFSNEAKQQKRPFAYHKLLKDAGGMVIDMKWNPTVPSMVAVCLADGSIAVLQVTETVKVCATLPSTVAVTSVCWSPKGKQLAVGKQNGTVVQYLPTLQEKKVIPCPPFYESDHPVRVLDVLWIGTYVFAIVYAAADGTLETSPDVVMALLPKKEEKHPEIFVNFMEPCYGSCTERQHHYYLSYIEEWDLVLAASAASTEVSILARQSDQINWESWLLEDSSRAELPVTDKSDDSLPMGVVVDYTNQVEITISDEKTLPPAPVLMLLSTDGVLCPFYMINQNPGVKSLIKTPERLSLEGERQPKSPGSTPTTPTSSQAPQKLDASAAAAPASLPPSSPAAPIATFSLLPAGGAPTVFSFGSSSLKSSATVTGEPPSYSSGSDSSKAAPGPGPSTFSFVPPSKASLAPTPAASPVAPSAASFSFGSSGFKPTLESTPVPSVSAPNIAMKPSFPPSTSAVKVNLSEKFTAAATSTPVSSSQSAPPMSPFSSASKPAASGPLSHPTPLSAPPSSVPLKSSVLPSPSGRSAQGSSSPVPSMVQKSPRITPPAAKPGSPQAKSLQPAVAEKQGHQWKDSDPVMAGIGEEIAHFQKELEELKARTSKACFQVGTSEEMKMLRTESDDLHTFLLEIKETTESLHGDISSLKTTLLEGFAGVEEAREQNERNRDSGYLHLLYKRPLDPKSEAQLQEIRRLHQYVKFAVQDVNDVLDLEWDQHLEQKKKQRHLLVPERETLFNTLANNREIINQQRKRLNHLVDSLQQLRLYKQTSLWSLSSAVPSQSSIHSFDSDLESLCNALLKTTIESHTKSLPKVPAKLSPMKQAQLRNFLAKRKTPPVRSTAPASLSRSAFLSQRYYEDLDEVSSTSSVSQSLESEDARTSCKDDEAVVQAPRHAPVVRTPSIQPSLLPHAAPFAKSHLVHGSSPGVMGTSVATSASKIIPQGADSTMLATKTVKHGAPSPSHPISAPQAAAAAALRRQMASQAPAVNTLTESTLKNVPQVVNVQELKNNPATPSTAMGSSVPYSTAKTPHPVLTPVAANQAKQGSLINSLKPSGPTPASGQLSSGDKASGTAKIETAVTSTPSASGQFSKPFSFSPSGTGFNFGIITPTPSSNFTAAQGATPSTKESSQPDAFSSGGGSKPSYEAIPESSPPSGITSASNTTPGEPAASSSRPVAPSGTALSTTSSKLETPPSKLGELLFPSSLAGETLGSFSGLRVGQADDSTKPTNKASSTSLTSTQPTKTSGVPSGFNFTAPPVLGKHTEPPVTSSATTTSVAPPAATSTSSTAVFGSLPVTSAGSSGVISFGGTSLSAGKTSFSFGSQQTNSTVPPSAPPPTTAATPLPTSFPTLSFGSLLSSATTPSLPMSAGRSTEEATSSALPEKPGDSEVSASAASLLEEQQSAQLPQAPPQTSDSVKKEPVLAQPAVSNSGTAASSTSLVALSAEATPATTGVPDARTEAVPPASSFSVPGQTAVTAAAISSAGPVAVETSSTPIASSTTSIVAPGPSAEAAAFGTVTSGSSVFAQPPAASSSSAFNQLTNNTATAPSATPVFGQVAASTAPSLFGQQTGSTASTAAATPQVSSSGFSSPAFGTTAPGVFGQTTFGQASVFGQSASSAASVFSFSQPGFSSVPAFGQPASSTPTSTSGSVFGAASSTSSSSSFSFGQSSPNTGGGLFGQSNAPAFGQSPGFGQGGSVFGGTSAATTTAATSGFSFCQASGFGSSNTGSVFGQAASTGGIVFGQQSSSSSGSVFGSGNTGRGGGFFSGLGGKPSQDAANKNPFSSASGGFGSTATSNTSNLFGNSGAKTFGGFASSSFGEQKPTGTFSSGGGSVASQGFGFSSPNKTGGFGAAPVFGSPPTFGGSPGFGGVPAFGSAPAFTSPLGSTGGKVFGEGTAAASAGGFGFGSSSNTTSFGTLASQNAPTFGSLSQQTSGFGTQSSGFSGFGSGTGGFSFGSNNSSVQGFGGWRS

LacI-CFP-Nup58 = target: T2, LacI-CFP-Nup58 (human, UniProt Q9BVL2 1-599)
T2 sequence: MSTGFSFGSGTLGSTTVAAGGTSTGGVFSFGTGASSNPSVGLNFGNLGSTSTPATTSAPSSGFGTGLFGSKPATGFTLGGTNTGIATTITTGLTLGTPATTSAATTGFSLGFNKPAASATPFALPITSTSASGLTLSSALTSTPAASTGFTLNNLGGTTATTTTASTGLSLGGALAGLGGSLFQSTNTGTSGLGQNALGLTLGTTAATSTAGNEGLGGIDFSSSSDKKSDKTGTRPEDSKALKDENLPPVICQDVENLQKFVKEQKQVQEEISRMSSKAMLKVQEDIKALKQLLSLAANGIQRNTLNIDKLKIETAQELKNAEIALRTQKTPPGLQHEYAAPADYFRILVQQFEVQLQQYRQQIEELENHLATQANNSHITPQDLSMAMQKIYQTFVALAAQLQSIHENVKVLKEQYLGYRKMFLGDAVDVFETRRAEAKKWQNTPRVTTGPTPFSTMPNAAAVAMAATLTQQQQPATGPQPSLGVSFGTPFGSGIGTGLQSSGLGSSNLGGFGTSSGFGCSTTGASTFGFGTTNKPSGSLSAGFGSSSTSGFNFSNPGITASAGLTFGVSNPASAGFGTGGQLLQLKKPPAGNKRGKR

LacI-CFP-Nup53 [1] = target: T3, LacI-CFP-Nup53 (human, UniProt Q8NFH5 1-326)
T3 sequence: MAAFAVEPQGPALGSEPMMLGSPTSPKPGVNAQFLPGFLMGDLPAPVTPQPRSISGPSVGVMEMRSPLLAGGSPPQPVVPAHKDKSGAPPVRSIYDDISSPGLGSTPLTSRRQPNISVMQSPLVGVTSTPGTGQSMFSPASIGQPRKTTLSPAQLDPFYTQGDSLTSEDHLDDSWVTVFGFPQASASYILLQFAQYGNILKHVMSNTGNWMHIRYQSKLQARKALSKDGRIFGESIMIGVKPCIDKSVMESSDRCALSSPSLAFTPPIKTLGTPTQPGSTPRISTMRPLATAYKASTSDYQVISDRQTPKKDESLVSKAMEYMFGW

LacI-CFP-Nup53 [2] = target: T3, LacI-CFP-Nup53; remark: listed apart in the source

percent of transfected cells showing colocalization (LacI-CFP-Nup98): 8%
percent of transfected cells showing colocalization (LacI-CFP-Nup214): 97%
percent of transfected cells showing colocalization (LacI-CFP-Nup58): 100%
B1: Nup62 (endogenous) (natural protein)
chain: MSGFNFGGTGAPTGGFTFGTAKTATTTPATGFSFSTSGTGGFNFGAPFQPATSTPSTGLFSLATQTPATQTTGFTFGTATLASGGTGFSLGIGASKLNLSNTAATPAMANPSGFGLGSSNLTNAISSTVTSSQGTAPTGFVFGPSTTSVAPATTSGGFSFTGGSTAQPSGFNIGSAGNSAQPTAPATLPFTPATPAATTAGATQPAAPTPTATITSTGPSLFASIATAPTSSATTGLSLCTPVTTAGAPTAGTQGFSLKAPGAASGTSTTTSTAATATATTTSSSSTTGFALNLKPLAPAGIPSNTAAAVTAPPGPGAAAGAAASSAMTYAQLESLINKWSLELEDQERHFLQQATQVNAWDRTLIENGEKITSLHREVEKVKLDQKRLDQELDFILSQQKELEDLLSPLEELVKEQSGTIYLQHADEEREKTYKLAENIDAQLKRMAQDLKDIIEHLNTSGAPADTSDPLQQICKILNAHMDSLQWIDQNSALLQRKVEEVTKVCEGRRKEQERSFRITFD

percent of transfected cells showing colocalization (LacI-CFP-Nup53 [1]): 63%
percent of transfected cells showing colocalization (LacI-CFP-Nup53 [2]): 67%
B2: Nup93 (endogenous) (natural protein)
chain: MDTEGFGELLQQAEQLAAETEGISELPHVERNLQEIQQAGERLRSRTLTRTSQETADVKASVLLGSRGLDISHISQRLESLSAATTFEPLEPVKDTDIQGFLKNEKDNALLSAIEESRKRTFGMAEEYHRESMLVEWEQVKQRILHTLLASGEDALDFTQESEPSYISDVGPPGRSSLDNIEMAYARQIYIYNEKIVNGHLQPNLVDLCASVAELDDKSISDMWTMVKQMTDVLLTPATDALKNRSSVEVRMEFVRQALAYLEQSYKNYTLVTVFGNLHQAQLGGVPGTYQLVRSFLNIKLPAPLPGLQDGEVEGHPVWALIYYCMRCGDLLAASQVVNRAQHQLGEFKTWFQEYMNSKDRRLSPATENKLRLHYRRALRNNTDPYKRAVYCIIGRCDVTDNQSEVADKTEDYLWLKLNQVCFDDDGTSSPQDRLTLSQFQKQLLEDYGESHFTVNQQPFLYFQVLFLTAQFEAAVAFLFRMERLRCHAVHVALVLFELKLLLKSSGQSAQLLSHEPGDPPCLRRLNFVRLLMLYTRKFESTDPREALQYFYFLRDEKDSQGENMFLRCVSELVIESREFDMILGKLENDGSRKPGVIDKFTSDTKPIINKVASVAENKGLFEEAAKLYDLAKNADKVLELMNKLLSPVVPQISAPQSNKERLKNMALSIAERYRAQGISANKFVDSTFYLLLDLITFFDEYHSGHIDRAFDIIERLKLVPLNQESVEERVAAFRNFSDEIRHNLSEVLLATMNILFTQFKRLKGTSPSSSSRPQRVIEDRDSQLRSQARTLITFAGMIPYRTSGDTNARLVQMEVLMN
